Assay results: patent US12365710B2, “HMGB1 protein derivatives for the removal of biofilms” (RESEARCH INSTITUTE AT NATIONWIDE CHILDREN'S HOSPITAL, priority 2018, dated 2025)
Where two headings read alike, the source gives them in different places.

B1: mHMGB1: engineered C45S variant of full length rHMGB1 that mimics the reduced form of HMGB1 (protein, UniProt P09429 1-215, looked up, variant C45S)
chain: MGKGDPKKPRGKMSSYAFFVQTCREEHKKKHPDASVNFSEFSKKSSERWKTMSAKEKGKFEDMAKADKARYEREMKTYIPPKGETKKKFKDPNAPKRPPSAFFLFCSEYRPKIKGEHPGLSIGDVAKKLGEMWNNTAADDKQPYEKKAAKLKEKYEKDIAAYRAKGKPDAAKKGVVKAEKSKKKKEEEEDEEDEEDEEEEEDEEDEDEEEDDDDE
modifications: full-length
notes: engineered C45S variant of full length rHMGB1 that mimics the reduced form of HMGB1
B2: B-linker Box: HMGB1 B Box with N- and C-terminal linker (80-179; 80 to 176 in b258), 97 amino acid (protein, UniProt P09429 80-179, looked up, fragment)
chain: PPKGETKKKFKDPNAPKRPPSAFFLFCSEYRPKIKGEHPGLSIGDVAKKLGEMWNNTAADDKQPYEKKAAKLKEKYEKDIAAYRAKGKPDAAKKGVVKAE

Tested on: B. cenocepacia
Assay type: in vivo, C57BL/6 mice
Conditions: for Bc CFU in lung tissue / Bc CFU in BAL: 10^7 CFU Bc i.t. with 0.2 nmol protein simultaneously, 18 h; for Bc CFU in lung tissue: data not shown, P<0.05; for Bc CFU in BAL: vs control mice; for aggregate biofilm formation / development in vivo: lung model, 0.2 nmol given simultaneously with Bc; for lung damage, H&E histology: mouse, in vivo
Experimental: FIGS. 7A-7G: HMGB1 promotes clearance of S. cenocepaca from mice without inducing sepsis. C57BL/6 mice were challenged with 10^7 CFU intratracheally, and either simultaneously (prevention) or 24 h later (treatment) received 0.2 nmol of HMGB1 valiant. (FIG. 7A) Aggregates of B. cenocepacia were visible by fluorescence microscopy in lung sections probed with an α-B. cenocepacia antibody. For prevention, (FIG. 7B) bronchoalveolar lavage (BAL) collected 18 h post-inoculation (hpi) was analyzed for CFU. (FIG. 7C) Neutrophils in BAL were quantified by differential cell counting. (FIG. 7D) Lung tissue collected 72hpi was fixed, embedded, sectioned, and stained with hematoxylin & eosin (10× magnification). For treatment, 72hpi (FIG. 7E) CFUs were quantified in BAL. (FIG. 7F) Neutrophil recruitment was analyzed 24 h after intraperitoneal (i.p.) administration of HMGB1 valiants by fluorescence-activated cell sorting of peritoneal lavage stained with α-CD45, α-CD11b, and αLy-6G. (FIG. 7G) Serum TNF-α. was measured by ELISA in mice injected i.p. with 0.2 nmol HMGB1 valiants, 5 mg/kg LPS, or both. LoD: limit of detection. Bars represent SD. *P<0.05.
Applicant's novel approach of using a non-antimicrobial agent like HMGB1 protein and its variants for the treatment of biofilm related infections epitomizes a radical departure from classic therapeutic concepts. Full length HMGB1 and the smallest variant tested to date with the greatest disruption activity found in vitro, B Box and the modified B Box (mB Box) where the cysteine at position 106 was mutated to a serine to abrogate its inflammatory inducing ability, were tested in vivo for biofilm disruption and inflammatory activity (FIG. 7).
rHMGB1 and mHMGB1 disrupt biofilms in two distinct animal models but the inflammatory response is strongly attenuated with Cys to Ser mutations: Applicant tested both rHMGB1 and mHMGB1 for their ability to treat middle ear infection and the corresponding inflammatory response using a well-established chinchilla model of experimental OM due to NTHI49,67,68 wherein adhered mucosal biofilm formation plays a key role in pathogenesis (FIG. 8A). The middle ear of mixed sex, outbred adult chinchillas were inoculated with 1000 CFU NTHI by transbullar injection. At days 4 and 5 post-challenge, at which time there is abundant biofilm present in the middle ear space, […] of rHMGB1, mHMGB1, or diluent was delivered directly to the middle ear (2 total treatments). On day 6, animals were sacrificed and middle ears were imaged and blindly scored for biofilm that remained (FIG. 8A) and mucosal inflammation (FIG. 8B). […] In contrast, MEFs from mHMGB1-treated animals had increased anti-inflammatory cytokines [IL-4 (2-fold), IL-10 (5-fold)] […] Next, Applicant determined whether rHMGB1 or mHMGB1 could prevent or […] biofilm development. For prevention, adult C57BL/6 mice were challenged with 10^7 CFU of Bc intratracheally (i.t.), and 0.2 nmol of rHMGB1 or mHMGB1 was added simultaneously. After 18 h, mice were euthanized, and bronchoalveolar lavage (BAL) and lungs were collected. Bc formed aggregates that were readily visible in lung sections probed with Bc antibody (FIG. 7A). Tissue was homogenized and CFUs were enumerated. […] This same animal model was then used to investigate lung damage 72 h post-challenge with Bc and administration of rHMGB1 or mHMGB1. Lungs were collected and tissue was fixed, embedded in paraffin, sectioned, and stained with Haematoxylin and Eosin (H&E). […] Next, Applicant assessed the ability of rHMGB1 and mHMGB1 to treat established Bc infection. Mice were challenged as above and 0.2 nmol rHMGB1 or mHMGB1 was administered 24 h later. 48 h after treatment, mice were euthanized and BAL and lungs were collected and processed as above. […] To further validate the reduced pro-inflammatory activity of mHMGB1, Applicant used an in vivo model of chemotaxis to determine relative ability to recruit neutrophils70,71. […]

Molecule | Bc CFU in lung tissue | Bc CFU in BAL | aggregate biofilm formation / development in vivo | lung damage, H&E histology | inflammatory response in the lung model (0.2 nmol) | aggregate biofilm formation / development in vivo (listed as B Box) | aggregate biofilm formation / development in vivo (listed as B box)
rHMGB1: tagless human recombinant full length HMGB1 (1-215) expressed in E. coli | significantly fewer | significantly fewer Bc in BAL | prevent biofilm formation in vivo | severe inflammation and an increased neutrophil response |  |  | 
B1 | significantly fewer | significantly fewer Bc in BAL | inhibited aggregate biofilm formation | more closely resembled uninfected mouse lungs | did not enhance the inflammatory response |  | 
B2 |  | decreased CFU in BAL |  |  |  | inhibit biofilm development in vivo | prevent biofilm formation in vivo
